These results are taken from patent publication US20240301031A1 (JIANGSU HENGRUI PHARMACEUTICALS, published 2024).

The target in test [1] is BAFF (R&D Systems, 7537-BF) (UniProt Q9Y275 134-285). The test can be described thus: cell-based or functional assay.
The target in test [2] is T1, human APRIL (5860-AP-010/CF, R&D Systems) (human, UniProt O75888 115-250, limits assumed).
T1 sequence (looked up): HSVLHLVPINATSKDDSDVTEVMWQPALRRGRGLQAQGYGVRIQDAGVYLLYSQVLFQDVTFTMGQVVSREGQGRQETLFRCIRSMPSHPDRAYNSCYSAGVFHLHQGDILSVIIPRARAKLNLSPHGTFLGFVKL
The test can be described thus: cell-based or functional assay.

Test [3] has as its target T2, human BAFF (10056-HNCH, Sino biological) (human, UniProt Q9Y275 134-285).
T2 construct: Bought protein
The test can be described thus: competition ELISA: biotin-labeled BAFF to coated BAFF-R. The procedure: The blocking activity of the antibodies and the fusion proteins for receptors and ligands such as BAFF/BAFF-R, BAFF/BCMA, BAFF/TACI, APRIL/BCMA, APRIL/TACI, and p40/IL-12R1 was assayed by the ELISA method. The specific procedures were as follows:
A receptor protein was diluted to 2 μg/mL with PBS at pH 7.4 (BasalMedia, B320) and added to a 96-well microplate (Corning, 3590) at 100 μL/well. The plate was incubated at 4° C. overnight. After the liquid was discarded, 200 μL of 1% Casein blocking solution (Thermo, 37528) was added to each well for blocking, and the plate was incubated at 37° C. for 2 h. After the blocking was completed, the blocking solution was discarded, and the plate was washed 3 times with a PBST buffer (PBS at pH 7.4 containing 0.1% tween-20) for later use. A biotin-labeled ligand protein at a fixed concentration was mixed with the antibody or fusion protein diluted in gradient, pre-incubated at 37° C. for 30 min, and added to a blocked microplate. The plate was incubated at 37° C. for 1.5 h. After the incubation was completed, the plate was washed 3 times with PBST. 100 μL of streptavidin-HRP (Invitrogen, 434323, diluted at a ratio of 1:4000) was added to each well, and the plate was incubated at 37° C. for 1 h. The supernatant was removed, and the plate was washed 3 times with PBST. 100 μL of TMB chromogenic substrate (KPL, 5120-0077) was added to each well, and the plate was incubated at room temperature for 10-15 min. The reaction was stopped by adding 50 μL of 1 M H₂SO₄ to each well. The plate was read for absorbance values at 450 nm on a microplate reader, the curves for the inhibition of the binding of the ligands to the receptors were fitted with software, and the IC₅₀ values were calculated.

In test [4] the target is T3, BAFF (ACROBiosystems, BAF-H5248) (UniProt Q9Y275 134-285).
T3 construct: Bought protein used in the ELISA with coated test sample
The test can be described thus: ELISA, fusion protein coated, BAFF titrated, Anti-His-HRP. Here is the method:
The binding activity of the TACI fusion proteins for BAFF and APRIL was assayed by the ELISA method (coating a test fusion protein sample). The specific procedures were as follows:
The test sample was diluted to 2 μg/mL with a PBS (BasalMedia, B320) buffer at pH 7.4 and added to a 96-well microplate (Corning, 3590) at 100 μL/well. The plate was incubated at 4° C. overnight. After the liquid was discarded, 300 μL of 5% skim milk (BD, 232100) diluted with PBS was added to each well for blocking, and the plate was incubated at 37° C. for 2 h. After the blocking was completed, the blocking solution was discarded, and the plate was washed 3 times with a PBST buffer (PBS at pH 7.4 containing 0.1% tween-20). 100 μL of BAFF (ACROBiosystems, BAF-H5248) or APRIL (R&D Systems, 5860-AP-010/CF) diluted in a gradient was added to each well, and the plate was incubated at 37° C. for 1 h. After the incubation, the plate was washed 3 times with PBST. When detecting the binding to BAFF, 100 μL of Anti-His-HRP (Sino biological, 105327-MM02T-H, diluted at a ratio of 1:2000) was added to each well; when detecting the binding to APRIL, 100 μL of anti-HA-HRP (Abcam, ab1190, diluted at a ratio of 1:4000) was added to each well. The plate was incubated at 37° C. for 1 h. The plate was washed 3 times with PBST. 100 μL of TMB chromogenic substrate (KPL, 5120-0077) was added to each well, and the plate was incubated at room temperature for 10-15 min. The reaction was stopped by adding 50 μL of 1 M H₂SO₄ to each well. The plate was read for absorbance values at 450 nm on a microplate reader, the binding curves of the antibodies to an antigen were fitted with software, and the EC₅₀ values were calculated.
(An ELISA detects its analyte on a solid surface through an enzyme-linked reagent.)

B1: TACI-9-15Fc6 fusion protein (Fc fusion)
chain: STSCREEQGEFYDHLLRDCISCASICGQHPKQCAAFCEEPKSSDKTHTCPPCPAPEAEGAPSVFLFPPKPKDTLMISRTPEVTCVVVDVSHEDPEVKFNWYVDGVEVHNAKTKPREEQYNSTYRVVSVLTVLHQDWLNGKEYKCKVSNKALPSSIEKTISKAKGQPREPQVYTLPPSRDELTKNQVSLTCLVKGFYPSDIAVEWESNGQPENNYKTTPPVLDSDGSFFLYSKLTVDKSRWQQGNVFSCSVMHEALHNHYTQKSLSLSPGK
notes: Full-length chain
The term IC50 denotes the point on the concentration scale where inhibition reaches its midpoint. The EC50 is the concentration needed to bring the measured effect to its halfway point. A low value points to higher potency in that assay. On to B1, for which, in test [1], the “IC50 (nM) for the inhibition of the BAFF-induced B cell proliferation” value was found to be 0.0481 nM. In addition, in test [2], the “IC50 (nM) for the inhibition of the APRIL-induced B cell proliferation” value is 0.14 nM. Besides, the IC50 in test [3] stood at 1.87 nM. Also, the EC50 in test [4] turned out to be 8.48 nM.

B2: TACI-9-15Fc8 fusion protein (Fc fusion)
chain: STSCREEQGEFYDHLLRDCISCASICGQHPKQCAAFCEEPKSSDKTHTCPPCPAPEAEGAPSVFLFPPKPKDTLMISRTPEVTCVVVDVSHEDPEVKFNWYVDGVEVHNAKTKPREEQYNSTYRVVSVLTVLHQDWLNGKEYKCKVSNKALPSSIEKTISKAKGQPREPQVYTLPPSRDELTKNQVSLTCLVKGFYPSDIAVEWESNGQPENNYKTTPPVLDSDGSFFLYSKLTVDKSRWQQGNVFSCSVMHEALHNHYTQKSLSLSPGGGGSSTSCREEQGEFYDHLLRDCISCASICGQHPKQCAAFCESK
notes: Full-length chain
Take B2: the “IC50 (nM) for the inhibition of the BAFF-induced B cell proliferation” value in test [1] was found to be 0.0291 nM. The “IC50 (nM) for the inhibition of the APRIL-induced B cell proliferation” value in test [2] amounted to 0.00477 nM. Moreover, the IC50 in test [3] was 1.56 nM. The molecule further yielded an EC50 in test [4] of 10.5 nM.

B3: TACI-9-15Fc9 fusion protein (Fc fusion)
chain: STSCREEQGEFYDHLLRDCISCASICGQHPKQCAAFCEEPKSSDKTHTCPPCPAPEAEGAPSVFLFPPKPKDTLMISRTPEVTCVVVDVSHEDPEVKFNWYVDGVEVHNAKTKPREEQYNSTYRVVSVLTVLHQDWLNGKEYKCKVSNKALPSSIEKTISKAKGQPREPQVYTLPPSRDELTKNQVSLTCLVKGFYPSDIAVEWESNGQPENNYKTTPPVLDSDGSFFLYSKLTVDKSRWQQGNVFSCSVMHEALHNHYTQKSLSLSPGGGGSSTSCREEQGEFYDHLLRDCISCASICGQHPKQCAAFCESS
notes: Full-length chain
Turning to B3, in test [1], the “IC50 (nM) for the inhibition of the BAFF-induced B cell proliferation” value was 0.0262 nM. Moreover, the “IC50 (nM) for the inhibition of the APRIL-induced B cell proliferation” value in test [2] came out at 0.00947 nM. In addition, the IC50 in test [3] is 1.19 nM. For the same molecule, the EC50 in test [4] was found to be 8.94 nM.

B4: TACI-9-15Fc7 fusion protein (Fc fusion)
chain: STSCREEQGEFYDHLLRDCISCASICGQHPKQCAAFCEEPKSSDKTHTCPPCPAPEAEGAPSVFLFPPKPKDTLMISRTPEVTCVVVDVSHEDPEVKFNWYVDGVEVHNAKTKPREEQYNSTYRVVSVLTVLHQDWLNGKEYKCKVSNKALPSSIEKTISKAKGQPREPQVYTLPPSRDELTKNQVSLTCLVKGFYPSDIAVEWESNGQPENNYKTTPPVLDSDGSFFLYSKLTVDKSRWQQGNVFSCSVMHEALHNHYTQKSLSLSPGGGGSSTSCREEQGEFYDHLLRDCISCASICGQHPKQCAAFCEQK
notes: Full-length chain
As for B4, the “IC50 (nM) for the inhibition of the BAFF-induced B cell proliferation” value in test [1] is 0.0244 nM. The “IC50 (nM) for the inhibition of the APRIL-induced B cell proliferation” value in test [2] was found to be 0.00481 nM. In test [3], the IC50 came to 1.38 nM. In test [4], this molecule returned a concentration giving a half-maximal response (EC50) of 8.95 nM.
